In US20230039279A1, “INFLAMMATION-RESPONSIVE ANTI-INFLAMMATORY HYDROGELS” (Nanyang Technological University, priority 2019, published 2023):
Entries after “also recorded” stand apart in the source; their conditions may differ. Blank lines part the entries; values can stand above or below the compound they belong to.

Columns and labels:
MMPs = assay: PMA skin inflammation mouse model, MMP activity by MMPSense fluorescent imaging; type: in vivo; conditions: 24 hours after subcutaneous PMA injection
Method: (§1) We established a mouse model of skin inflammation using phorbol 12-myristate 13-acetate (PMA) as a stimulant (FIG. 12A) which could induce the upregulation of MMPs captured by MMPSense probe. At the PMA injection sites 24 hours post PMA injection, we observed a red area whose extent was associated with the increase in PMA amounts injected (FIG. 12B). […] In addition, there was a basal of amount of MMP which generated the lowest fluorescent signal at PMA-free PBS buffer injection site. Thus, as more PMA was subcutaneously injected, the fluorescent intensity rose; and more importantly this increase in signal intensity correlated with the extent of the red area on the dorsal side of mice. Protein expression was also studied as skin tissue at the PMA injection sites were retrieved for MMP-9 quantification using ELISA kit (FIG. 12E). […] Overall, PMA subcutaneous injection with increasing amounts could induce subcutaneous inflammation with increasing levels of severity, resulting in more MMP-9 secretion.

MMP-9 [1] = assay: PMA skin inflammation mouse model, MMP-9 quantification in skin tissue by ELISA; type: in vivo; conditions: skin tissue at injection site
Method: as §1

[2] = tested on: RAW 264.7 murine macrophages; assay: WST-1 relative metabolic activity of macrophages treated with hydrogel releasates; type: cell-based; conditions: 0.6 mg/mL freely dissolved drug, equivalent dosage; 72 hours treatment
Method: RAW 264.7 murine macrophages were cultured in high glucose DMEM (Gibco Laboratories) supplemented with 10% FBS (Gibco Laboratories), and 1% penicillin/streptomycin (Gibco Laboratories) at 37° C. in 5% CO2 atmosphere. RAW 264.7 macrophages at passages of 20-30 were seeded in 96-well plates (Corning®) at an initial seeding density of 2×10^4 cells/well and incubated at 37° C. for 24 hours. A volume of 100 μL of each hybrid hydrogel (GEL-iP and scrGEL-iP) fabricated with 1.7% (w/v) of PEG and 5% (w/v) of ibuprofen-loaded PLGA microparticles was incubated in 500 μL of phenol red-free DMEM (Gibco Laboratories) culture medium for 2 hours in the presence and absence of 3 μg/ml of MMP-9 (FIG. 4A). […] Afterwards, the releasates were removed from the treated macrophages; and the in vitro metabolic activity of treated cells was evaluated using WST-1 cell proliferation assay (Abcam) as per manufacturer's protocol. […] A volume of 100 μL of this medium was then transferred into a new 96-well plate; and its absorbance at 450 nm and 690 nm was recorded using a microplate reader (SpectraMax M5). To calculate relative metabolic activity, all the absorbance values at 450 nm were subtracted by the values at the reference wavelength of 690 nm and the background absorbance to achieve corrected absorbance values. Afterward, the relative metabolic activity was calculated as follows: […]

[3] = Tube-inversion gelation screening of peptide crosslinkers with PEG-VS and ibu-PLGA particles; type: physicochemical
Method: Peptide-crosslinked hydrogels were prepared by reacting 4-arm poly(ethylene glycol)-vinyl sulfone (PEG-VS) (20 kDa, Sigma Aldrich, St. Louis, Mo., USA) with bis-cysteine peptides (Genscript, Hong Kong) in stoichiometric ratio. Each precursor was dissolved in either triethanolamine (TEOA) buffer (0.3M) or PBS/NaOH buffer (pH=10). Typically, to prepare 117 μL of peptide-crosslinked hydrogels with 4.2% (w/v) PEG content, 5 mg of PEG-VS was dissolved in 100 μL of a buffer solution in a glass vial and mixed with a stoichiometric amount of a peptide crosslinker dissolved in 17 μL of the same buffer solution. Hydrogels with 4.2% (w/v) PEG content were evaluated in the preliminary screening of peptide crosslinkers. Hydrogels with 1.7% (w/v) PEG content were used in all subsequent in vitro and in vivo experiments. To form hybrid hydrogels consisting of PLGA particles (with or without ibuprofen) embedded in peptide-crosslinked hydrogels, the aforementioned precursors were dissolved separately in a buffer solution containing suspended PLGA particles at a concentration of 5% (w/v).
To identify an optimal peptide crosslinker for GEL-iP, we performed qualitative screening of 8 peptide sequences (Table 3 and FIG. 14) by evaluating the influence of substrate and spacer choices on the gelation and cleavability of hybrid hydrogels. In addition, buffers in which gelation occurred was also investigated because their environmental pH might affect the deprotonation of thiols and subsequently influence the crosslinking process. For each combination of substrate, spacer and buffer, the feasibility of gelation was visually inspected via a tube-inversion method. A stoichiometric amount of a peptide crosslinker was added to a glass vial containing a mixture of PEG-VS solution and suspended ibu-PLGA particles. In a parallel experiment, another vial with the same mixture composition, but without the peptide crosslinker of interest, was used as a control. The two vials were inverted at regular intervals until the mixture in one vial stopped flowing despite gravity indicating successful gelation. An example of the successful gelation of a typical hybrid hydrogel was captured in photographs of glass vials A1 and A2 (FIG. 2). […] This solid white appearance resulted from the white ibu-PLGA particles. In the absence of any peptide crosslinker, the precursor mixture in the control vial A2 remained free-flowing, indicating absence of gelation.

MMP-9 [4] = biological target: T1, MMP-9 (Homo sapiens, UniProt P14780); assay: MMP-9 cleavability of hybrid hydrogels (released particles seen under optical microscope); type: biochemical; set-up: purchased Merck; conditions: 3 μg/ml MMP-9 in PBS, 37° C., 20 hours
Method: Each hybrid hydrogel of 20 μL volume in a 500 μL Eppendorf tube was incubated at 37° C. with 3 μg/ml of MMP-9 (83 kDa, Merck) in PBS buffer (DPBS/modified, without calcium and magnesium, HyClone™). In a control experiment, another hybrid hydrogel with the same composition was immersed in PBS buffer without MMP-9. After 20 hours of incubation, the medium surrounding the hybrid hydrogel was sampled onto a cover slip and observed under an optical microscope (Olympus CKX53SF, Japan) to inspect for the presence of released particles.
The selected concentration of MMP-9 is within the range of MMP-9 expression in clinical wound fluids and synovial fluids of patients with rheumatoid arthritis and osteoarthritis [Ladwig, G. P. et al. Wound Repair and Regeneration 10(1) 26-37 (2002); Li, Z. et al. Journal of Diabetes and its Complications 27(4) 380-382 (2013)]. In a typical successful cleavage by MMP-9, the photographs of vials B1 and B2 in FIG. 2 show the appearance of a hybrid hydrogel, which had the same composition as that in vial A1, after prolonged exposure to a buffer with and without MMP-9 respectively. […] The optical microscope image C1 verified the presence of ibu-PLGA particles in the resulting liquid mixture of vial B1 confirming the successful digestion of this hybrid hydrogel by MMP-9. In contrast, MMP-9-free PBS buffer added after gelation was observed as a clear liquid phase in vial B2. The optical microscope image C2 also confirmed the absence of any released lbu-PLGA particles in vial B2.
Target sequence in this assay (P14780 107-707 limits assumed): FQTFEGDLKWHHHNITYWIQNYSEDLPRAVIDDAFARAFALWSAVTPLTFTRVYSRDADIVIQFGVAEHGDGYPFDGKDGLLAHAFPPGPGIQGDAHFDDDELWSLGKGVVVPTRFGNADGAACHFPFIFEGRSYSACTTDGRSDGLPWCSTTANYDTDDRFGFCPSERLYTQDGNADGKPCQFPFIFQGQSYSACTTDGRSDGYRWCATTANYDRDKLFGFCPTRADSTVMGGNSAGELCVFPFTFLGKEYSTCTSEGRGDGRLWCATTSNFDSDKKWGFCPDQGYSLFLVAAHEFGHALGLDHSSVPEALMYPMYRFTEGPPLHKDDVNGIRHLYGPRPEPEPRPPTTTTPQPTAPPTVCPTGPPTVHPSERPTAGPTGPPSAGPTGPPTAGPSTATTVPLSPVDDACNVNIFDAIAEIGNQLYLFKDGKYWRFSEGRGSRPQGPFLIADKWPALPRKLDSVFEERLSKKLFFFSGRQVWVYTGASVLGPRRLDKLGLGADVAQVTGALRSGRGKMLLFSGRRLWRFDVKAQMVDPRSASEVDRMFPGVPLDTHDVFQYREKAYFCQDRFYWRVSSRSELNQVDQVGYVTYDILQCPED

MMP-9 [5] = biological target: T1, MMP-9; assay: Protease specificity of peptide anchor (MMP-9 versus Cathepsin B and HNE); type: biochemical
Excerpt: A) The cumulative liberation of ibuprofen (LIbu) increased corresponding to the increase in the MMP-9 concentrations. Absence of diffusion-driven basal release in the absence of MMP9 protease (bottom line). B) The specificity of GPRSLSGRRCG (SEQ ID NO: 20) sensitivity to MMP-9 compared to Cathepsin B and HNE. Error bars represent standard error of the means of n=4 replicates.
FIG. 9 supports the hypothesis that protease-sensitive drug release can be achieved from an ibuprofen-conjugated PEG hydrogel upon exposure to clinically relevant protease concentration of 1 ug/ml. […] LC-MS analysis confirmed the presence of the liberated ibuprofen bearing fragment (ibu-GPQG, LC peak at elution time of 14.6 min, MS peak at m/z=546.20) in the supernatant collected after 2 days of hydrogel exposure to MMP9 solution (FIG. 9B). In contrast, this peak is absent from the supernatant collected when the hydrogel was exposed to a control buffer without MMP9. Since the concentration of active MMP9 in human wound fluid falls within the range of 0.3-4.8 μg/ml, our data in FIG. 10A support the feasibility of drug release at a clinically relevant protease concentration.
Target sequence in this assay (P14780 94-707): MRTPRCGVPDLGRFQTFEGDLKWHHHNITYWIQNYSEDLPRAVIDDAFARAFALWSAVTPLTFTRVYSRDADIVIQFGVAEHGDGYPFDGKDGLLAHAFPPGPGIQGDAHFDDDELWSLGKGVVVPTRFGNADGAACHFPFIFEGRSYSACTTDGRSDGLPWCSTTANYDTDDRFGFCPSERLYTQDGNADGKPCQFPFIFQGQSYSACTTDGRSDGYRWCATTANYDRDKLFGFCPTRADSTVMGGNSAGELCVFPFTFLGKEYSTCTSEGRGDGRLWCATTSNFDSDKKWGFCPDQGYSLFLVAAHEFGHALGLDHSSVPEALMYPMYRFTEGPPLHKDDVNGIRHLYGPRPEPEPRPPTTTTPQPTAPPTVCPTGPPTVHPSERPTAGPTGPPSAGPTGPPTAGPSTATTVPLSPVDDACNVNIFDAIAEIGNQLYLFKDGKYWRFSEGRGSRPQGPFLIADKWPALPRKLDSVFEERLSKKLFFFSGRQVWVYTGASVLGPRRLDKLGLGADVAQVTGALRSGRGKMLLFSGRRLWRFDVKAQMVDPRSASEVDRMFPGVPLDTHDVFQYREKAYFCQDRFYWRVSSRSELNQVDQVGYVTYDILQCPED

MMP-9 [6] = biological target: T1, MMP-9; assay: Degradation of plural protease-cleavable hydrogel, MMP-9 alone; type: biochemical
Method: (§2) A) Schematic of the mechanism of dual protease-responsive combinational hydrogel system. B) Photographs show the cleavability of H2-M2 combinational hydrogels over 24 hours (n=3). (i) Control, (ii) With HNE protease; (iii) With MMP-9 protease; and (iv) With both HNE and MMP-9 proteases. C) Quantification of the average number of PLGA particles released from combinational hydrogels in the presence of zero, single or dual proteases over 24 hours (n=3). Error bars represent s.e.m of n=3 replicates. p-values were determined by one-way ANOVA with Tukey post-hoc analysis. (***) and (ns) denote p≤0.001 and p≥0.05 (not significant) respectively.
Target sequence in this assay (P14780 94-707): as above

HNE = biological target: T2, HNE (Homo sapiens, UniProt P08246); assay: Degradation of plural protease-cleavable hydrogel, HNE alone; type: biochemical
T2 sequence (P08246 30-267): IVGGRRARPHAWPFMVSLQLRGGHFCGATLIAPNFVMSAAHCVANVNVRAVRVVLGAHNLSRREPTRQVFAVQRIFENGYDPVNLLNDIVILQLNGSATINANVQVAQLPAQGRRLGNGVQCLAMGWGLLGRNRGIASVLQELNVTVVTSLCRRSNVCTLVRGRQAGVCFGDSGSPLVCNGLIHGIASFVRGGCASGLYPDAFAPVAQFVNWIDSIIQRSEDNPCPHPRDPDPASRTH
Method: as §2

cleavability of hybrid hydrogel crosslinked with the peptide by MMP-9 (MMP-9 [4]): could be digested by MMP-9
Compound: GCRD-GPQG↓IWGQ-DRCG (GCRDGPQGIWGQDRCG; GCRD-GPQGIWGQ-DRCG) [peptide (5), spacer GCRD]

cleavability of hybrid hydrogel crosslinked with the peptide by MMP-9 (MMP-9 [4]): not cleaved
Compound: GCRD-LGRM↓GLPGK-DRCG (GCRDLGRMGLPGKDRCG; GCRD-LGRMGLPGK-DRCG) [peptide (6), spacer GCRD, same substrate as peptide (2)]

cleavability of hybrid hydrogel crosslinked with the peptide by MMP-9 (MMP-9 [4]): not cleaved
Compound: GCRR-AVRW↓LLTA-RRCG (GCRRAVRWLLTARRCG; GCRR-AVRWLLTA-RRCG) [peptide (3)]
gelation by crosslinking with PEG-VS ([3]; PBS/NaOH buffer): could induce gelation
gelation by crosslinking with PEG-VS ([3]; TEOA buffer): not

cleavability of hybrid hydrogel crosslinked with the peptide by MMP-9 (MMP-9 [4]): not cleaved
Compound: GCRR-LGRM↓GLPGK-RRCG (GCRRLGRMGLPGKRRCG; GCRR-LGRMGLPGK-RRCG) [peptide (2), spacer GCRR, same substrate as peptide (6)]

Further lines, the compound ahead of its results:

Compound: CCCCCCCCCCCCCC(=O)O[C@@H]1[C@@H](C)[C@@]2(O)[C@@H](C=C(CO)C[C@]3(O)C(=O)C(C)=C[C@@H]23)[C@@H]2C(C)(C)[C@]12OC(C)=O [PMA, phorbol 12-myristate 13-acetate]
MMP activity (fluorescent signal), difference 4 μg versus 0.4 μg of PMA (MMPs): 1.9 fold
amount of MMP-9 secreted, difference 4 μg versus 0 μg PMA (MMP-9 [1]): 10 fold
amount of MMP-9 secreted, difference 4 μg versus 0.4 μg PMA (MMP-9 [1]): 5 fold

Compound: CC(C)Cc1ccc(C(C)C(=O)O)cc1 (stereo not drawn) [ibuprofen]
relative metabolic activity of macrophages [2]: ~0%

Compound: GCRD-AVRW↓LLTA-DRCG (GCRDAVRWLLTADRCG; GCRD-AVRWLLTA-DRCG) [peptide (8)]
gelation by crosslinking with PEG-VS ([3]; PBS/NaOH buffer): preventing gelation
gelation by crosslinking with PEG-VS ([3]; TEOA buffer): preventing gelation

Compound: GCRD-KGPRS↓LSGK-DRCG (GCRDKGPRSLSGKDRCG; GCRD-KGPRSLSGK-DRCG) [(7)]
cleavability of hybrid hydrogel crosslinked with the peptide by MMP-9 (MMP-9 [4]): could be digested by MMP-9; also recorded: successful hydrogel cleavage by MMP-9

Compound: GCRR-GPQG↓IWGQ-RRCG (GCRRGPQGIWGQRRCG; GCRR-GPQGIWGQ-RRCG) [peptide (4), spacer GCRR]
cleavability of hybrid hydrogel crosslinked with the peptide by MMP-9 (MMP-9 [4]): could be digested by MMP-9; also recorded: successful hydrogel cleavage by MMP-9

Compound: GCRR-KGPRSLSGK-RRCG (GCRRKGPRSLSGKRRCG; GCRR-KGPRSLSGK-RRCG) [peptide (1)]
cleavability of hybrid hydrogel crosslinked with the peptide by MMP-9 (MMP-9 [4]): could be digested by MMP-9; also recorded: successful hydrogel cleavage by MMP-9

Compound: GPRSLSGRRCG (GPRSLSGRRCG)
specificity toward MMP-9 compared to cathepsin B and HNE (MMP-9 [5]): good specificity toward MMP-9

Compound: GRCR-GPRS↓LSG-RCRG [M2]
preferential cleavage of peptide substrate by MMP-9 (MMP-9 [6]): preferentially cleaved

Compound: GRCR-PMAV↓VQSVP-RCRG [H2]
preferential cleavage of peptide substrate by HNE (HNE): preferentially cleaved
